These results are taken from article PMC8303963, “Action of Multiple Rice β-Glucosidases on Abscisic Acid Glucose Ester” (International Journal of Molecular Sciences, 2021).

The Km is the concentration of substrate that gives half-maximal velocity. In general, kcat refers to the number of substrate molecules converted per active site and unit of time at saturation. As usually defined, the kcat/Km is the turnover number divided by the Michaelis constant.

Substrate in this data set: CC1=CC(=O)CC(C)(C)[C@@]1(O)/C=C/C(C)=C\C(=O)O[C@@H]1O[C@H](CO)[C@@H](O)[C@H](O)[C@H]1O
Put plainly: glucose release by peroxidase/glucose oxidase assay, Michaelis-Menten fit. It counts as biochemical, Oryza sativa. Particulars: 50 mM sodium acetate pH 5, 30 °C. An excerpt: glucose release by peroxidase/glucose oxidase assay, Michaelis-Menten fit on Os4BGlu12

B1: Os4BGlu12 (Oryza sativa Japonica Group) (protein)
chain: AYNGAGEPPVSRRSFPKGFIFGTASSSYQYEGGAAEGGRGPSIWDTFTHQHPEKIADRSNGDVASDSYHLYKEDVRLMKDMGMDAYRFSISWTRILPNGSLRGGVNKEGIKYYNNLINELLSKGVQPFITLFHWDSPQALEDKYNGFLSPNIINDFKDYAEICFKEFGDRVKNWITFNEPWTFCSNGYATGLFAPGRCSPWEKGNCSVGDSGREPYTACHHQLLAHAETVRLYKAKYQALQKGKIGITLVSHWFVPFSRSKSNDDAAKRAIDFMFGWFMDPLIRGDYPLSMRGLVGNRLPQFTKEQSKLVKGAFDFIGLNYYTANYADNLPPSNGLNNSYTTDSRANLTGVRNGIPIGPQAASPWLYVYPQGFRDLLLYVKENYGNPTVYITENGVDEFNNKTLPLQEALKDDARIEYYHKHLLSLLSAIRDGANVKGYFAWSLLDNFEWSNGYTVRFGINFVDYNDGRKRYPKNSAHWFKKFLLK
notes: recombinant from E. coli, IMAC purified; N-terminal thioredoxin and His6 tags cut off with enterokinase
Regarding B1, the Km is 10.9 ± 0.9 mM, the kcat is 7.5 ± 0.0002 s⁻¹ and the kcat/Km was found to be 689 M⁻¹ s⁻¹.
